Data reported in publication PMC3459938.

Experiments:
Test in all cases: ELISA
[1] = biological target: construct 2 (WW2-WW3-GFP, natural linker) (human) (UniProt P46934)
WW3-GFP (human) = WW3-GFP (human) (UniProt P46934)
[2] = biological target: construct 4 (two WW domains joined by QGLQNEE, GFP fusion)
[3] = biological target: WW2-GFP (construct 7) (human) (UniProt P46934)
[4] = biological target: construct 5 (two WW domains joined by QGLQNEE, GFP fusion)
[5] = biological target: WW4-GFP (construct 9) (human) (UniProt P46934)
WW_(2-3-4)-GFP (human) = WW_(2-3-4)-GFP (human) (UniProt P46934)

## Adenovirus serotype 3 Penton-Dodecahedron (from UniProt Q2Y0H9 1-544; P04501 1-319) (complex)
[1]
  decrease in affinity relative to WW (2-3-4)-GFP: 20%
WW3-GFP (human)
  Kd: 0.0824 nM
  percent Pt-Dd binding relative to WW (2-3-4)-GFP: 80%
[2]
  decrease in affinity relative to WW (2-3-4)-GFP: 20%
[3]
  percent Pt-Dd binding relative to WW (2-3-4)-GFP: 13%
[4]
  decrease in affinity relative to WW (2-3-4)-GFP: 20%
[5]
  percent Pt-Dd binding relative to WW (2-3-4)-GFP: 40%
WW_(2-3-4)-GFP (human)
  Kd: 0.0525 nM
